Here are results for four molecules from patent US20240344138A1, “TARGETED THERAPIES IN CANCER” (Feng Biosciences, Inc, priority 2021, published 2024).

Common to all, as to type: in vivo, human
Experiment [1] deals with advanced colorectal cancers metastatic to liver (mCRC). The experiment in a line: Phase 2 trial of navicixizumab, innate immune activating agent and PD-(L)1 agent (3L+), outcome by TME phenotype. Also on record: mPFS: unit not given beside the values. The settings on record: 3L+ mCRC. An excerpt: A phase 2 clinical trial is run to determine clinical benefit in patients with advanced colorectal cancers metastatic to liver (mCRC) treated with a triplet combination of navicixizumab, an innate immune activating agent, and a PD-(L)1 agent. In this setting, regorafenib or trifluoridine/tipiracil therapy typically yield a median PFS (mPFS) of ˜2 months and median OS (mOS) of ˜7 months. […] The analysis includes enrollment of 60 patients with prospectively defined, retrospective analysis of liver metastatic lesions by the classifying the TME phenotypes as A, IA, IS or ID.
MSS+ advanced colorectal cancer patients (3L+) with liver metastases are treated with the triplet combination of navicixizumab, an anti-PD(L)1 therapy and an innate immune stimulating agent, such as the Dectin agonist Imprime PGG, the STING agonist BMS-986301 and the NLR agonist BMS-986299. ORR, mPFS, 3-month PFS rate, mOS and OS rate at 9 months are assessed across all TME phenotypes. […] patients received a greater clinical benefit than the standard of care for 3L+ mCRC with regorafenib or trifluoridine/tipiracil.

Experiment [2] relates to advanced metastatic hepatocellular carcinoma. Put plainly: Single arm phase 2 first-line trial of bavituximab and immune checkpoint inhibitor, outcome by TME phenotype. Also on record: 6 month progression-free survival (6-month PFS): concentration or dose not given beside the values. The procedure:
(§1) A single arm phase 2 clinical trial is run to determine whether advanced metastatic hepatocellular carcinoma tumor microenvironment phenotypes correlate to clinical responses when patients are treated with Bavituximab and an immune checkpoint inhibitor in the first-line setting. The analysis includes samples from 28 patients. RNA gene signatures are analyzed from tumor samples acquired before any treatments and TME phenotypes are determined. Patients are followed for clinical response, progression-free survival, and overall survival.
(§2) Hepatocellular carcinoma patients receive a regimen of Bavituximab plus an immune checkpoint inhibitor (anti-PD-(L)1—i.e., an inhibitor to PD-1 or PD-L1) therapy. […] Twenty-eight (28) patients are enrolled, with equal representation across the 4 stromal phenotypes (7 in each phenotype). The correlation between each TME phenotype is tested against clinical outcome data. In patients that are biomarker positive, represented by immune active (IA) and immune suppressed (IS) phenotypes, the use of the regimen of Bavituximab/immune checkpoint inhibitor confers benefit in comparison to patients classified as biomarker negative, comprised of angiogenic (A) and immune desert (ID) TME phenotype classes, as shown in the TABLE 31.

Experiment [3] concerns metastatic gliomas and glioblastoma. Put plainly: Clinical trial of radiation, bavituximab and a checkpoint inhibitor, best objective response versus TME biomarker status. The procedure: A clinical trial is run to treat metastatic gliomas and glioblastoma with a combination of radiation, the anti-phosphatidylserine (anti-PS) targeting antibody bavituximab, and a checkpoint inhibitor (CPI), such as a PD-(L)1, e.g. pembrolizumab or nivolumab. Tumor tissue samples from surgical resections of glioblastoma are RNA sequenced and TME phenotypes are determined. Patients are followed for ORR.

In experiment [4] the test system is recurrent/metastatic squamous carcinoma of head and neck (HNSCC). Put plainly: Single arm phase 2 trial of bavituximab and immune checkpoint inhibitor after progression on an immune checkpoint inhibitor, outcome by TME phenotype. The procedure: as §1, with “recurrent/metastatic squamous” for “advanced metastatic hepatocellular”, “carcinoma of head and neck (HNSCC)” for “carcinoma”, “following progression on an immune checkpoint inhibitor (e.g., nivolumab, pembrolizumab, durvalumab, atezolizumab, etc.).” for “in the first-line setting.”
as §2, with “HNSCC” for “Hepatocellular carcinoma”, “In” for “In patients that are”, “positive patients,” for “positive,”, “32.” for “31.”

B1: navicixizumab, an anti-PD(L)1 therapy and an innate immune stimulating agent (antibody, chains of the INN, looked up, V domains shown)
VH: QVQLVQSGAEVKKPGASVKISCKASGYSFTAYYIHWVKQAPGQGLEWIGYISNYNRATNYNQKFKGRVTFTTDTSTSTAYMELRSLRSDDTAVYYCARDYDYDVGMDYWGQGTLVTVSS
VL: DIVMTQSPDSLAVSLGERATISCRASESVDNYGISFMKWFQQKPGQPPKLLIYAASNQGSGVPDRFSGSGSGTDFTLTISSLQAEDVAVYYCQQSKEVPWTFGGGTKVEIK
VH2: QVQLVQSGAEVKKPGASVKVSCKASGYTFTNYWMHWVRQAPGQGLEWMGDINPSNGRTSYKEKFKRRVTLSVDKSSSTAYMELSSLRSEDTAVYFCTIHYDDKYYPLMDYWGQGTLVTVSS
VL2: B1 VL
modifications: with anti-PD(L)1 and innate immune stimulant
Regarding B1, in experiment [1] (TME phenotype A (n = 12)), the ORR worked out at 25%, the “PFS rate (3 month)” value is on record as 30%, the mOS came out at 12 mos and the mPFS turned out to be 6. Also, in experiment [1] (TME phenotype IA (n = 12)), the ORR is on record as 35%, the “OS rate (9 month)” value came out at 50%, the “PFS rate (3 month)” value is reported as 30% and the mOS is recorded as 12 mos. Also, the mPFS in experiment [1] (TME phenotype IA (n = 12)) amounted to 6. Besides, in experiment [1] (TME phenotype ID (n = 24)), the ORR was 20%, the “OS rate (9 month)” value stood at 40%, the “PFS rate (3 month)” value was 30% and the mOS worked out at 10 mos. In experiment [1] (TME phenotype ID (n = 24)), the mPFS turned out to be 4. Besides, in experiment [1] (TME phenotype IS (n = 12)), the ORR is 30%, the “OS rate (9 month)” value is listed as 45%, the “PFS rate (3 month)” value was 30% and the mOS stood at 11 mos. In experiment [1] (TME phenotype IS (n = 12)), the mPFS was found to be 5.

B2: Bavituximab/immune checkpoint inhibitor: bavituximab plus an immune checkpoint inhibitor (anti-PD-(L)1) (antibody, chains of the INN, looked up, V domains shown)
VH: EVQLQQSGPELEKPGASVKLSCKASGYSFTGYNMNWVKQSHGKSLEWIGHIDPYYGDTSYNQKFRGKATLTVDKSSSTAYMQLKSLTSEDSAVYYCVKGGYYGHWYFDVWGAGTTVTVSS
VL: DIQMTQSPSSLSASLGERVSLTCRASQDIGSSLNWLQQGPDGTIKRLIYATSSLDSGVPKRFSGSRSGSDYSLTISSLESEDFVDYYCLQYVSSPPTFGAGTKLELK
modifications: plus immune checkpoint inhibitor
For B2, in experiment [2] (all patients, first-line), the “6 month progression-free survival (6-month PFS)” value is listed as roughly 57.2%, the “Overall response rate (ORR)” value is roughly 32% and the “overall survival (OS)” value is on record as roughly 20 months.

B3: bavituximab, checkpoint inhibitor, and radiation (antibody, chains of the INN, looked up, V domains shown)
VH: B2 VH
VL: B2 VL
modifications: with checkpoint inhibitor and radiation
For B3, in experiment [3] (TME A), the “Best Objective Response CR, number of patients” value (“Best Objective Response CR” below) amounted to 0; the “Best Objective Response PD, number of patients” value (“Best Objective Response PD” for short) is recorded as 4; the “Best Objective Response PR, number of patients” value (from here on “Best Objective Response PR”) is listed as 1; the “Best Objective Response SD, number of patients” value (from here on “Best Objective Response SD”) is listed as 1. In addition, in experiment [3] (TME IA), the “Best Objective Response CR” value is 0; the “Best Objective Response PD” value was 4; the “Best Objective Response PR” value was 3; the “Best Objective Response SD” value was determined as 2. Besides, in experiment [3] (TME ID), the “Best Objective Response CR” value was found to be 0; the “Best Objective Response PD” value stood at 6; the “Best Objective Response PR” value is on record as 1; the “Best Objective Response SD” value turned out to be 1. In experiment [3] (TME IS), the “Best Objective Response CR” value worked out at 0; the “Best Objective Response PD” value is 4; the “Best Objective Response PR” value worked out at 4; the “Best Objective Response SD” value was 4.

B4: Bavituximab plus immune checkpoint inhibitor (antibody, chains of the INN, looked up, V domains shown)
VH: B2 VH
VL: B2 VL
modifications: plus immune checkpoint inhibitor
Consider B4, for which the “6-month progression free survival (PFS) rate” value in experiment [2] (Biomarker Negative (n = 14)) stood at 35.7%; in experiment [2] (Biomarker Positive (n = 14)), 78.6%; in experiment [2] (TME phenotype A (n = 7)), 42.8%; in experiment [2] (TME phenotype IA (n = 7)), 71.4%; in experiment [2] (TME phenotype ID (n = 7)), 28.6%; in experiment [2] (TME phenotype IS (n = 7)), 85.7%. In addition, the “Overall response rate (ORR)” value is recorded as 14% in experiment [2] (Biomarker Negative (n = 14)); 50% in experiment [2] (Biomarker Positive (n = 14)); 14% in experiment [2] (TME phenotype A (n = 7)); 43% in experiment [2] (TME phenotype IA (n = 7)); 14% in experiment [2] (TME phenotype ID (n = 7)); 57% in experiment [2] (TME phenotype IS (n = 7)). For the same molecule, the “Overall response rate (ORR)” value in experiment [4] (Biomarker Negative (n = 14)) is on record as 14.3%; in experiment [4] (Biomarker Positive (n = 14)), 36.4%; in experiment [4] (TME phenotype A (n = 7)), 14.3%; in experiment [4] (TME phenotype IA (n = 7)) it was 28.6%; in experiment [4] (TME phenotype ID (n = 7)), 14.3%; in experiment [4] (TME phenotype IS (n = 7)), 42.9%. Moreover, the “overall survival (OS)” value in experiment [2] (Biomarker Negative (n = 14)) stood at 16.2 months; in experiment [2] (Biomarker Positive (n = 14)) it was 23.8 months; in experiment [2] (TME phenotype A (n = 7)), 16.7 months; in experiment [2] (TME phenotype IA (n = 7)) it was 22.4 months; in experiment [2] (TME phenotype ID (n = 7)) it was 15.7 months; in experiment [2] (TME phenotype IS (n = 7)), 25.2 months. In addition, the “overall survival (OS)” value was 7.8 months in experiment [4] (Biomarker Negative (n = 14)); 11.2 months in experiment [4] (Biomarker Positive (n = 14)); 8.6 months in experiment [4] (TME phenotype A (n = 7)); 11.0 months in experiment [4] (TME phenotype IA (n = 7)); 7.0 months in experiment [4] (TME phenotype ID (n = 7)); 11.4 months in experiment [4] (TME phenotype IS (n = 7)). The “progression free survival (PFS)” value in experiment [4] (Biomarker Negative (n = 14)) is 2.5 months; in experiment [4] (Biomarker Positive (n = 14)), 5.5 months; in experiment [4] (TME phenotype A (n = 7)), 2.6 months; in experiment [4] (TME phenotype IA (n = 7)) it was 5.3 months; in experiment [4] (TME phenotype ID (n = 7)), 2.4 months; in experiment [4] (TME phenotype IS (n = 7)), 5.7 months.
